Read-outs that look alike come from different tables or passages of the source. One block for each binder: values may come before it.
Key:
[1] = target: T1, PACAP38 (Pituitary Adenylate Cyclase-Activating Polypeptide, 38 amino acids) (human, not fully specified; the C-terminal lysine is amidated); test: cell surface binding assay (DELFIA TRF): antibody pre-incubated with PACAP38, added to PAC1-R-expressing PC-12 cells, detected with Eu anti-human IgG; the antibody is held on the cells through cell-bound PACAP38
T1 construct: In the HTRF and PC-12 cell assays the peptide was N-terminally or C-terminally biotinylated; unlabelled in SPR; also called human PACAP38; huPACAP (1-38)
T1 peptide: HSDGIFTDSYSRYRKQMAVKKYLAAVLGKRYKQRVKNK

[2] = target: T2, PACAP27 (Pituitary Adenylate Cyclase-Activating Polypeptide, 27 amino acids) (human, the C-terminal leucine is amidated); test: SPR (ProteOn XPR36), antibody amine-coupled, peptide analyte, 1:1 Langmuir fit
T2 construct: also called human PACAP27
T2 peptide: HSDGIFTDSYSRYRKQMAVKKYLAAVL
Experimental: (§1) Binding affinities of monoclonal antibodies for human PACAP were estimated using SPR on the PROTEON™ XPR36 (Bio-Rad, Hercules, CA). Antibody was immobilized to the surface of general amine coupling (“GLC” or “GLM”) Chips (Bio-Rad, Hercules, CA). […] Antigen (ranging from 1.23 nM to 100 nM) was typically run sequentially with association times of 2-4 minutes and dissociation times of 3-120 minutes grouped with the PROTEON™ Manager Software (v3.1.0.6 (Bio-Rad, Hercules, CA)) and fitted using a 1:1 Langmuir binding model. Surfaces were regenerated between analyte queries using 0.85% Phosphoric Acid.

[3] = target: T1, PACAP38 (Pituitary Adenylate …); test: as above
Experimental: as §1

[4] = target: T2, PACAP27 (Pituitary Adenylate …); test: cell-based or functional assay
[5] = target: T1, PACAP38 (Pituitary Adenylate …); test: cell-based or functional assay
[6] = target: T1, PACAP38 (Pituitary Adenylate …); test: cell-based or functional assay
[7] = target: T1, PACAP38 (Pituitary Adenylate …); test: cell-based or functional assay
[8] = target: T3, VIP (Vasoactive Intestinal Peptide) (human); test: SPR (ProteOn XPR36), antibody amine-coupled, peptide analyte, 1:1 Langmuir fit
T3 construct: also called human VIP
T3 peptide: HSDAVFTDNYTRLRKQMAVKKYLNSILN

[9] = target: T1, PACAP38 (Pituitary Adenylate …); test: cell surface binding assay (DELFIA TRF): antibody pre-incubated with PACAP38, added to PAC1-R-expressing PC-12 cells, detected with Eu anti-human IgG; the antibody is held on the cells through cell-bound PACAP38
Experimental: Cells were initially seeded at 1×10⁵ cells/well in a solution of complete RPMI (“cRPMI”: RPMI medium supplemented with 10% sterile heat-inactivated FBS and 1% sterile antibiotic/antimycotic)+10% FBS, and the plates were allowed to incubate overnight at 37° C. On the day of the binding assay, antibodies at an initial concentration of 15 μg/ml were diluted at a 1:3 ratio in DELFIA® binding buffer (50 mM Tris, 150 mM NaCl, 0.1% azide, 2% horse serum) (Perkin-Elmer, Waltham, MA) to a total volume of 60 μL in a separate 96 well round bottom plate. PACAP38 was prepared for the binding assay by diluting it in DELFIA® binding buffer to a concentration of 200 nM, and then 60 μl of the diluted PACAP38 was added to each of the antibody-containing wells to form antibody: antigen complexes. Following addition of PACAP38, the antibody: antigen complexes were incubated at room temperature on a shaker for 1 hour. […]
DELFIA® Europium labeled anti-human IgG detection reagent (Cat #1244-330, Perkin-Elmer, Waltham, MA) was diluted to a concentration of 300 ng/ml in DELFIA® Binding Buffer. […] The plates were then read (TRF, excitation 330 nm, emission 620 nm) on a SPECTRAMAX® (Molecular Devices, Sunnyvale, CA) plate reader.

[10] = target: T2, PACAP27 (Pituitary Adenylate …); test: SPR (ProteOn XPR36), antibody amine-coupled, peptide analyte, 1:1 Langmuir fit
Experimental: (§2) Binding affinities of monoclonal antibodies for human PACAP were estimated using SPR on the PROTEON™ XPR36 (Bio-Rad, Hercules, CA). Antibody was immobilized to the surface of general amine coupling (“GLC″ or “GLM”) Chips (Bio-Rad, Hercules, CA). […] Antigen (ranging from 1.23 nM to 100 nM) was typically run sequentially with association times of 2-4 minutes and dissociation times of 3-120 minutes grouped with the PROTEON™ Manager Software (v3.1.0.6 (Bio-Rad, Hercules, CA)) and fitted using a 1:1 Langmuir binding model. Surfaces were regenerated between analyte queries using 0.85% Phosphoric Acid, 0.5% SDS, and 0.1N NaOH.

[11] = target: T1, PACAP38 (Pituitary Adenylate …); test: as above
Experimental: as §2

[12] = target: T2, PACAP27 (Pituitary Adenylate …); test: competition HTRF binding assay: unlabeled PACAP27 at 10x against biotinylated PACAP38 (35 nM)
Experimental: In parallel, 10 μl of an antibody dilution series (highest final concentration of 100 nM) were incubated with 10 μl of N-terminal or C-terminal biotinylated PACAP38 (35 nM final) alone, or in combination with either PACAP27 (350 nM final) or VIP (350 nM final), i.e., 10× PACAP27 or 10× VIP, respectively, in a HTRF plate. 20 μl of Eu³⁺ cryptate labeled anti-hu Fc donor and 20 μl of d2-labeled streptavidin acceptor were added to each well and incubated for 1 hour at room temperature. Fluorescence was measured at 620 and 665 nm with a delay of 300 usec.

[13] = target: T4, PAC1-R on PAC1-R-expressing PC-12 cells (UniProt P32215 20-523); test: cell surface binding assay (DELFIA TRF): antibody pre-incubated with PACAP38, added to PAC1-R-expressing PC-12 cells, detected with Eu anti-human IgG
T4 construct: whole, on cells; also called PAC1 receptor
T4 sequence (looked up): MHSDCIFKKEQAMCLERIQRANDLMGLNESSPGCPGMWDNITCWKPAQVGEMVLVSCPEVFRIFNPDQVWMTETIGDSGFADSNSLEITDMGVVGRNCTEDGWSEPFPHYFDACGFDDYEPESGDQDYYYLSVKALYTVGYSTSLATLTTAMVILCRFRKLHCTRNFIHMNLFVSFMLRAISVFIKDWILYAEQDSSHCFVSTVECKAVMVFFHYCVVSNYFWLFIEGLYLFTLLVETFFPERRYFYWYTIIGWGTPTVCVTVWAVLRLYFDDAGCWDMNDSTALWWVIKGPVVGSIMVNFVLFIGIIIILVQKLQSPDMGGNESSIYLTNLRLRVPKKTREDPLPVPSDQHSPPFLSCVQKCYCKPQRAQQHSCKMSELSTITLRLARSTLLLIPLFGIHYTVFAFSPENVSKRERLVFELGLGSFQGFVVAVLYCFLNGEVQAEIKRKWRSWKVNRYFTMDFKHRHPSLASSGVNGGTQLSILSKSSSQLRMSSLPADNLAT
Experimental: Cells were initially seeded at 1×10⁵ cells/well in a solution of complete RPMI (“cRPMI”: RPMI medium supplemented with 10% sterile heat-inactivated FBS and 1% sterile antibiotic/antimycotic)+10% FBS, and the plates were allowed to incubate overnight at 37° C. On the day of the binding assay, antibodies at an initial concentration of 15 μg/ml were diluted at a 1:3 ratio in DELFIA® binding buffer (50 mM Tris, 150 mM NaCl, 0.1% azide, 2% horse serum) (Perkin-Elmer, Waltham, MA) to a total volume of 60 μL in a separate 96 well round bottom plate. PACAP38 was prepared for the binding assay by diluting it in DELFIA® binding buffer to a concentration of 200 nM, and then 60 μl of the diluted PACAP38 was added to each of the antibody-containing wells to form antibody: antigen complexes. Following addition of PACAP38, the antibody: antigen complexes were incubated at room temperature on a shaker for 1 hour. Separately, the PC-12 cells were prepared for addition of antibody: antigen complexes by washing the cells two times with DELFIA® wash buffer (50 mM Tris, 150 mM NaCl, 0.1% Azide) (Perkin-Elmer, Waltham, MA). After washing the cells two times and following the 1 hour room temperature incubation of the antibody: antigen complexes, 50 μl of the antibody: antigen complex was added to each well containing cells. The mixtures of cells and antibody: antigen complexes were then incubated for 30 minutes at room temperature. Following this 30 minute incubation, each mixture was washed two times with DELFIA® wash buffer (Perkin-Elmer, Waltham, MA).
DELFIA® Europium labeled anti-human IgG detection reagent (Cat #1244-330, Perkin-Elmer, Waltham, MA) was diluted to a concentration of 300 ng/ml in DELFIA® Binding Buffer. Following dilution, 50 μl of the anti-human IgG detection reagent was added to each well containing cells, and a 30 minute incubation at room temperature followed this addition of IgG detection reagent. After completion of the 30 minute room temperature incubation, the cells were then washed two times with DELFIA® wash buffer. Next, 50 μl of DELFIA® Enhancement Solution (Cat #1244-105, Perkin-Elmer, Waltham, MA) was added to each well containing cells for a final 15 minute room temperature incubation with shaking. The plates were then read (TRF, excitation 330 nm, emission 620 nm) on a SPECTRAMAX® (Molecular Devices, Sunnyvale, CA) plate reader.

- EC50 (read off the curve) [1]: ~2 nM
- Kd [2]: 0.013 nM
- koff [2]: 1e-05 s⁻¹
- Kd [3]: 0.021 nM
- koff [3]: 1e-05 s⁻¹
B1: Ab1.H (antibody, V domains shown)
VH: EVQLVESGGGLVQPGGSLRLSCAASGFTVSSAVMNWVRQAPGKGLEWIGSIVASGTTYYASSANGRFTISRDNSKNTLYLQMNSLRAEDTAVYYCARGGGEFFIWGQGTLVTVSS
VL: DIQMTQSPSTLSASVGDRVTITCQSSESVYSNYLSWYQQKPGKAPKFLIYQASNLASGVPSRFSGSGSGTEFTLTISSLQPDDFATYYCAGGYSENIVGFGGGTKVEIKR

- Inhibition of 1 nM PACAP27-induced PAC1-R mediated cAMP increase IC50 (pM) [4]: 274 pM
- Inhibition of 0.1 nM PACAP38-induced PAC1-R mediated cAMP increase IC50 (pM) [5]: 28.5 pM
- Inhibition of 5 nM PACAP38-induced human VPAC1-R mediated cAMP increase IC50 (pM) [6]: 2480 pM
- Inhibition of 1 nM PACAP38-induced human VPAC2-R mediated cAMP increase IC50 (pM) [7]: 1060 pM
- Kd [8]: 225 nM
- koff [8]: 0.011 s⁻¹
- kon [8]: 48800 M⁻¹ s⁻¹
- EC50 (read off the curve) [9]: ~7 nM
- Kd [10]: ≤ 0.0233 nM
- koff [10]: ≤ 1e-05 s⁻¹
- kon [10]: 430000 M⁻¹ s⁻¹
- Kd [11]: ≤ 0.0171 nM
- koff [11]: ≤ 1e-05 s⁻¹
- kon [11]: 586000 M⁻¹ s⁻¹
B2: Ab21.H2 (antibody, human IgG1, kappa, N297A)
heavy: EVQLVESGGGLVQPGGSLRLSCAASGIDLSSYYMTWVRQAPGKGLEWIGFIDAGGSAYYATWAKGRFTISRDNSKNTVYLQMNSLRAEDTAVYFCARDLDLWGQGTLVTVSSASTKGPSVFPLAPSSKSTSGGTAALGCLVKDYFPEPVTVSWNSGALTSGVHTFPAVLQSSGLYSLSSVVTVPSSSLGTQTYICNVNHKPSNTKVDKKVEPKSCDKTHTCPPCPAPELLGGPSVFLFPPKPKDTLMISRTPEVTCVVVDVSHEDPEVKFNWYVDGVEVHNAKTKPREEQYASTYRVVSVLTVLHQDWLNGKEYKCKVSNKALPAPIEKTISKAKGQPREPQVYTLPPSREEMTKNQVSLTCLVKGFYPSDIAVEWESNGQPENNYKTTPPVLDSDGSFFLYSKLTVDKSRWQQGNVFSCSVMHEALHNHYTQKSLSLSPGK
light: AVLTQSPSTLSASVGDRVTITCKSSESVYGDYLAWFQQKPGKAPKQLIYDASTLASGVPSRFSGSGSGTEFTLTISSLQPDDFATYYCAGGYVSAGVAFGGGTKVEIKRTVAAPSVFIFPPSDEQLKSGTASVVCLLNNFYPREAKVQWKVDNALQSGNSQESVTEQDSKDSTYSLSSTLTLSKADYEKHKVYACEVTHQGLSSPVTKSFNRGEC
notes: Full-length humanized variant of Ab21

- binding result [12]: no binding
- binding result [13]: no binding (tested: about 70 nM)
B3: Ab22 (antibody, human IgG1, kappa, N297A, V domains shown)
VH: QEQLVESGGGLVQPEGSLTLTCTASGFDFSSNAMCWVRQAPGKGLEWIGSIYNADGKNYYAIWAKGRFTISRTSSTTVTLQMTSLTAADTATYFCARDFDLWGQGTLVTVSS
VL: AAVLTQTPSPVSAAVGGTVTINCQSSQSVYDNDWLAWFQQKPGQPPKLLIYLTSTLASGVPSRFSGSGSGTQFTLTISGVQCDDAATYYCLGGYDEDGDTHVFGGGTEVVVKR
notes: Full-length anti-PACAP antibody; rabbit/human chimeric
